# Laboratory results as given in the RNAGym collection of RNA variant scans (doi:10.1093/nar/gkz1192).
# B1: CPEB3 Ribozyme (parent)
# chain: UAACAGGGGGCCACAGCAGAAGCGUUCACGUCGCAGCCCCUGUCAGAUUCUGGUGAAUCUGCGAAUUCUGCUGUAUAUCUC
# Variants of: B1
# Test: self-cleavage, relative activity (ratio to wild type); higher = more cleavage; in vitro, sequencing
# Procedure, shortened: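 Barcoded CPEB3 ribozyme mutants, produced by rounds of error-prone PCR, self-cleaved while being transcribed with T7 RNA polymerase for 5 hours at 37°C and during a subsequent 15 min DNase I step before EDTA was added. Sequencing of template-switched cDNA on Illumina gave cleaved and total reads, and DNA sequencing assigned barcodes to variants. Each variant's relative activity is its cleaved/total read fraction divided by the unmutated ribozyme's fraction, averaged across three batches. A variant needed a minimum of 5 reads.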
row,Variant,self-cleavage
1,UAACAGGGGGCCACAGCAGAAGCGUUCCCGUCGCAGCCCCUGUCAGAUUCUGGUGAAUCUGCGAAUUCUACUGUAUAUCUC,0.27
2,UAACAGGGGGCCACAGCAGAAGCGUUCCCGUCGCAGCCCCUGUCAGAUUCUGGUGAAUCUGCGAAUUCUUCUGUAUAUCUC,0.11
3,UAACAGGGGGCCACAGCAGAAGCGUUCCCGUCGCAGCCCCUGUCAGAUUCUGGUGAAUCUGCGAAUUCUGCUUUAUAUCUC,0.55
4,UAACAGGGGGCCACAGCAGAAGCGUUCCCGACGCAGCCCCUGUCAGAUUCUGGUGAAUCUGCGAAUUCUGCUGUAUAUCUC,0.55
5,UAACAGGGGGCCACAGCAGAAGCGUUCCCGCCGCAGCCCCUGUCAGAUUCUGGUGAAUCUGCGAAUUCUGCUGUAUAUCUC,0.35
6,UAACAGGGGGCCACAGCAGAAGCGUUCCCGGCGCAGCCCCUGUCAGAUUCUGGUGAAUCUGCGAAUUCUGCUGUAUAUCUC,0.38
7,UAACAGGGGGCCACAGCAGAAGCGUUCCCGUCGCAGCCCCAGUCAGAUUCUGGUGAAUCUGCGAAUUCUGCUGUAUAUCUC,0.2
8,UAACAGGGGGCCACAGCAGAAGCGUUCCCGUCGCAGCCCCCGUCAGAUUCUGGUGAAUCUGCGAAUUCUGCUGUAUAUCUC,0.28
9,UAACAGGGGGCCACAGCAGAAGCGUUCCCGUCGCAGCCCCUGACAGAUUCUGGUGAAUCUGCGAAUUCUGCUGUAUAUCUC,0.59
10,UAACAGGGGGCCACAGCAGAAGCGUUCCCGUCGCAGCCCCUGCCAGAUUCUGGUGAAUCUGCGAAUUCUGCUGUAUAUCUC,0.4
11,UAACAGGGGGCCACAGCAGAAGCGUUCCCGUCGCAGCCCCUGUCAGAAUCUGGUGAAUCUGCGAAUUCUGCUGUAUAUCUC,0.37
12,UAACAGGGGGCCACAGCAGAAGCGUUCCCGUCGCAGCCCCUGUCAGACUCUGGUGAAUCUGCGAAUUCUGCUGUAUAUCUC,0.46
13,UAACAGGGGGCCACAGCAGAAGCGUUCCCGUCGCAGCCCCUGUCAGAUACUGGUGAAUCUGCGAAUUCUGCUGUAUAUCUC,0.26
14,UAACAGGGGGCCACAGCAGAAGCGUUCCCGUCGCAGCCCCUGUCAGAUCCUGGUGAAUCUGCGAAUUCUGCUGUAUAUCUC,0.21
15,UAACAGGGGGCCACAGCAGAAGCGUUCCCGUCGCAGCCCCUGUCAGAUUCAGGUGAAUCUGCGAAUUCUGCUGUAUAUCUC,0.53
16,UAACAGGGGGCCACAGCAGAAGCGUUCCCGUCGCAGCCCCUGUCAGAUUCCGGUGAAUCUGCGAAUUCUGCUGUAUAUCUC,0.51
17,UAACAGGGGGCCACAGCAGAAGCGUUCCCGUCGCAGCCCCUGUCAGAUUCGGGUGAAUCUGCGAAUUCUGCUGUAUAUCUC,0.38
18,UAACAGGGGGCCACAGCAGAAGCGUUCCCGUCGCAGCCCCUGUCAGAUUCUGGCGAAUCUGCGAAUUCUGCUGUAUAUCUC,0.53
19,UAACAGGGGGCCACAGCAGAAGCGUUCCCGUCGCAGCCCCUGUCAGAUUCUGGGGAAUCUGCGAAUUCUGCUGUAUAUCUC,0.36
20,UAACAGGGGGCCACAGCAGAAGCGUUCCCGUCGCAGCCCCUGUCAGAUUCUGGUGAACCUGCGAAUUCUGCUGUAUAUCUC,0.27
21,UAACAGGGGGCCACAGCAGAAGCGUUCCCGUCGCAGCCCCUGUCAGAUUCUGGUGAAGCUGCGAAUUCUGCUGUAUAUCUC,0.2
22,UAACAGGGGGCCACAGCAGAAGCGUUCCCGUCGCAGCCCCUGUCAGAUUCUGGUGAAUCAGCGAAUUCUGCUGUAUAUCUC,0.4
23,UAACAGGGGGCCACAGCAGAAGCGUUCCCGUCGCAGCCCCUGUCAGAUUCUGGUGAAUCCGCGAAUUCUGCUGUAUAUCUC,0.29

row,Variant,self-cleavage
1,UAACAGGGGGCCACAGCAGAAGCGUUCCCGUCGCAGCCCCUGUCAGAUUCUGGUGAAUCUGCGAACUCUGCUGUAUAUCUC,0.28
2,UAACAGGGGGCCACAGCAGAAGCGUUCCCGUCGCAGCCCCUGUCAGAUUCUGGUGAAUCUGCGAAUACUGCUGUAUAUCUC,0.49
3,UAACAGGGGGCCACAGCAGAAGCGUUCCCGUCGCAGCCCCUGUCAGAUUCUGGUGAAUCUGCGAAUCCUGCUGUAUAUCUC,0.22
4,UAACAGGGGGCCACAGCAGAAGCGUUCCCGUCGCAGCCCCUGUCAGAUUCUGGUGAAUCUGCGAAUUCAGCUGUAUAUCUC,0.17
5,UAACAGGGGGCCACAGCAGAAGCGUUCCCGUCGCAGCCCCUGUCAGAUUCUGGUGAAUCUGCGAAUUCCGCUGUAUAUCUC,0.19
6,UAACAGGGGGCCACAGCAGAAGCGUUCCCGUCGCAGCCCCUGUCAGAUUCUGGUGAAUCUGCGAAUUCGGCUGUAUAUCUC,0.2
7,UAACAGGGGGCCACAGCAGAAGCGUUCCCGUCGCAGCCCCUGUCAGAUUCUGGUGAAUCUGCGAAUUCUGCAGUAUAUCUC,0.38
8,UAACAGGGGGCCACAGCAGAAGCGUUCCCGUCGCAGCCCCUGUCAGAUUCUGGUGAAUCUGCGAAUUCUGCCGUAUAUCUC,0.61
9,UAACAGGGGGCCACAGCAGAAGCGUUCCCGUCGCAGCCCCUGUCAGAUUCUGGUGAAUCUGCGAAUUCUGCGGUAUAUCUC,0.4
10,UAACAGGGGGCCACAGCAGAAGCGUUCCCGUCGCAGCCCCUGUCAGAUUCUGGUGAAUCUGCGAAUUCUGCUGAAUAUCUC,0.9
11,UAACAGGGGGCCACAGCAGAAGCGUUCCCGUCGCAGCCCCUGUCAGAUUCUGGUGAAUCUGCGAAUUCUGCUGCAUAUCUC,0.7
12,UAACAGGGGGCCACAGCAGAAGCGUUCCCGUCGCAGCCCCUGUCAGAUUCUGGUGAAUCUGCGAAUUCUGCUGUAAAUCUC,0.61
13,UAACAGGGGGCCACAGCAGAAGCGUUCCCGUCGCAGCCCCUGUCAGAUUCUGGUGAAUCUGCGAAUUCUGCUGUACAUCUC,0.53
14,UAACAGGGGGCCACAGCAGAAGCGUUCCCGUCGCAGCCCCUGUCAGAUUCUGGUGAAUCUGCGAAUUCUGCUGUAUAACUC,0.64
15,UAACAGGGGGCCACAGCAGAAGCGUUCCCGUCGCAGCCCCUGUCAGAUUCUGGUGAAUCUGCGAAUUCUGCUGUAUACCUC,0.46
16,UAACAGGGGGCCACAGCAGAAGCGUUCCCGUCGCAGCCCCUGUCAGAUUCUGGUGAAUCUGCGAAUUCUGCUGUAUAUCAC,0.53
17,UAACAGGGGGCCACAGCAGAAGCGUUCGCGUCGCAGCCCCUGUCAGAUUCUGGUGAAUCUGCGAAUUCUGCUGUAUAUCUC,0.67
18,UAACAGGGGGCCACAGCAGAAGCGUUCGCGUCGCCGCCCCUGUCAGAUUCUGGUGAAUCUGCGAAUUCUGCUGUAUAUCUC,0.53
19,UAACAGGGGGCCACAGCAGAAGCGUUCGCGUCGCGGCCCCUGUCAGAUUCUGGUGAAUCUGCGAAUUCUGCUGUAUAUCUC,1.18
20,UAACAGGGGGCCACAGCAGAAGCGUUCGCGUCGCUGCCCCUGUCAGAUUCUGGUGAAUCUGCGAAUUCUGCUGUAUAUCUC,0.27
21,UAACAGGGGGCCACAGCAGAAGCGUUCGCGUCGCAGCCCCUGUCCGAUUCUGGUGAAUCUGCGAAUUCUGCUGUAUAUCUC,0.33
22,UAACAGGGGGCCACAGCAGAAGCGUUCGCGUCGCAGCCCCUGUCGGAUUCUGGUGAAUCUGCGAAUUCUGCUGUAUAUCUC,0.4
23,UAACAGGGGGCCACAGCAGAAGCGUUCGCGUCGCAGCCCCUGUCUGAUUCUGGUGAAUCUGCGAAUUCUGCUGUAUAUCUC,0.31

row,Variant,self-cleavage
1,UAACAGGGGGCCACAGCAGAAGCGUUCGCGUCGCAGCCCCUGUCAGCUUCUGGUGAAUCUGCGAAUUCUGCUGUAUAUCUC,0.23
2,UAACAGGGGGCCACAGCAGAAGCGUUCGCGUCGCAGCCCCUGUCAGGUUCUGGUGAAUCUGCGAAUUCUGCUGUAUAUCUC,0.52
3,UAACAGGGGGCCACAGCAGAAGCGUUCGCGUCGCAGCCCCUGUCAGUUUCUGGUGAAUCUGCGAAUUCUGCUGUAUAUCUC,0.25
4,UAACAGGGGGCCACAGCAGAAGCGUUCGCGUCGCAGCCCCUGUCAGAUUCUGGUGCAUCUGCGAAUUCUGCUGUAUAUCUC,0.31
5,UAACAGGGGGCCACAGCAGAAGCGUUCGCGUCGCAGCCCCUGUCAGAUUCUGGUGGAUCUGCGAAUUCUGCUGUAUAUCUC,0.43
6,UAACAGGGGGCCACAGCAGAAGCGUUCGCGUCGCAGCCCCUGUCAGAUUCUGGUGUAUCUGCGAAUUCUGCUGUAUAUCUC,0.34
7,UAACAGGGGGCCACAGCAGAAGCGUUCGCGUCGCAGCCCCUGUCAGAUUCUGGUGACUCUGCGAAUUCUGCUGUAUAUCUC,0.16
8,UAACAGGGGGCCACAGCAGAAGCGUUCGCGUCGCAGCCCCUGUCAGAUUCUGGUGAGUCUGCGAAUUCUGCUGUAUAUCUC,0.51
9,UAACAGGGGGCCACAGCAGAAGCGUUCGCGUCGCAGCCCCUGUCAGAUUCUGGUGAUUCUGCGAAUUCUGCUGUAUAUCUC,0.24
10,UAACAGGGGGCCACAGCAGAAGCGUUCGCGUCGCAGCCCCUGUCAGAUUCUGGUGAAUCUGCGGAUUCUGCUGUAUAUCUC,0.46
11,UAACAGGGGGCCACAGCAGAAGCGUUCGCGUCGCAGCCCCUGUCAGAUUCUGGUGAAUCUGCGUAUUCUGCUGUAUAUCUC,0.24
12,UAACAGGGGGCCACAGCAGAAGCGUUCGCGUCGCAGCCCCUGUCAGAUUCUGGUGAAUCUGCGACUUCUGCUGUAUAUCUC,0.21
13,UAACAGGGGGCCACAGCAGAAGCGUUCGCGUCGCAGCCCCUGUCAGAUUCUGGUGAAUCUGCGAGUUCUGCUGUAUAUCUC,0.33
14,UAACAGGGGGCCACAGCAGAAGCGUUCGCGUCGCAGCCCCUGUCAGAUUCUGGUGAAUCUGCGAUUUCUGCUGUAUAUCUC,0.15
15,UAACAGGGGGCCACAGCAGAAGCGUUCGCGUCGCAGCCCCUGUCAGAUUCUGGUGAAUCUGCGAAUUCUGCUGUGUAUCUC,0.53
16,UAACAGGGGGCCACAGCAGAAGCGUUCGCGUCGCAGCCCCUGUCAGAUUCUGGUGAAUCUGCGAAUUCUGCUGUUUAUCUC,0.73
17,UAACAGGGGGCCACAGCAGAAGCGUUCGCGUCGCAGCCCCUGUCAGAUUCUGGUGAAUCUGCGAAUUCUGCUGUAUCUCUC,0.58
18,UAACAGGGGGCCACAGCAGAAGCGUUCGCGUCGCAGCCCCUGUCAGAUUCUGGUGAAUCUGCGAAUUCUGCUGUAUGUCUC,0.72
19,UAACAGGGGGCCACAGCAGAAGCGUUCGCGUCGCAGCCCCUGUCAGAUUCUGGUGAAUCUGCGAAUUCUGCUGUAUUUCUC,0.79
20,UAACAGGGGGCCACAGCAGAAGCGUUCGUGUCGCAGCCCCUGUCAGAUUCUGGUGAAUCUGCGAAUUCUGCUGUAUAUCUC,0.52
21,UAACAGGGGGCCACAGCAGAAGCGUUCGCGUAGCAGCCCCUGUCAGAUUCUGGUGAAUCUGCGAAUUCUGCUGUAUAUCUC,0.13
22,UAACAGGGGGCCACAGCAGAAGCGUUCGCGUUGCAGCCCCUGUCAGAUUCUGGUGAAUCUGCGAAUUCUGCUGUAUAUCUC,0.24
